{"source": "paper PMC3252277", "key": {"[1]": {"biological_target": "C-terminal recombinant ADAMTS-10 polypeptide (human) (UniProt Q9H324)", "sequence (Q9H324 26-1103)": "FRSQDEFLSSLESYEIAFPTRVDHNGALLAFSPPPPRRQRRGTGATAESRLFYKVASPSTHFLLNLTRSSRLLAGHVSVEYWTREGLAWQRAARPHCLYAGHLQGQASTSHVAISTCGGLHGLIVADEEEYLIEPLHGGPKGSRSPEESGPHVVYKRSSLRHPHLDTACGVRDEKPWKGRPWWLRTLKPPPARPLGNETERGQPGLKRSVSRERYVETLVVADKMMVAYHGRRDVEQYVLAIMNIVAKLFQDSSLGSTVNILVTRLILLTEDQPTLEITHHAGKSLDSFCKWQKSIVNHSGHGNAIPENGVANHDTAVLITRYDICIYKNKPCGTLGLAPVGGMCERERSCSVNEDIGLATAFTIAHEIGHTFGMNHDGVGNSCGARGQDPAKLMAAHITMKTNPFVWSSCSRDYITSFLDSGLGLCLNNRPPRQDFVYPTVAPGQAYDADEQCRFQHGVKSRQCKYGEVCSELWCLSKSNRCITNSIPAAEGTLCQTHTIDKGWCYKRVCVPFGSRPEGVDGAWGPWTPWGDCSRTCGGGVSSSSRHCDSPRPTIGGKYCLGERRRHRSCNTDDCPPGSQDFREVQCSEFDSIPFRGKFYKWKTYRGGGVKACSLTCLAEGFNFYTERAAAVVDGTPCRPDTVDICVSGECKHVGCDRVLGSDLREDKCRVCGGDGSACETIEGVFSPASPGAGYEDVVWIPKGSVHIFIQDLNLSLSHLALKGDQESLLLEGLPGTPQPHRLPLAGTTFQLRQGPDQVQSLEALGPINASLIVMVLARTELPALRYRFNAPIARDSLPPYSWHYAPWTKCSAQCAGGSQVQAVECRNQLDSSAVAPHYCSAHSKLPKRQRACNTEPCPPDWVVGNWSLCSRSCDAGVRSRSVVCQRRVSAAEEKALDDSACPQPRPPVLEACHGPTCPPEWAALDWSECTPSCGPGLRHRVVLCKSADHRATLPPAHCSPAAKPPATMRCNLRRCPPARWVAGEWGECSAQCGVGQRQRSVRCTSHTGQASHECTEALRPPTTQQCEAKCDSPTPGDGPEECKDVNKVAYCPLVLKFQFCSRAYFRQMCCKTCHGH", "assay": "SPR; data not shown; N-terminal fibrillin-1 polypeptide with the C-terminal end of ADAMTS-10"}, "[2]": {"biological_target": "C-terminal recombinant ADAMTS-10 polypeptide (human) (UniProt Q9H324)", "assay": "SPR; C-terminal end of ADAMTS-10 coupled to a chip; soluble C-terminal ADAMTSL-3 at 80-0 nM; 25°C, HBS-EP buffer"}, "[3]": {"biological_target": "fibrillin-1 N-terminal half (Homo sapiens) (UniProt P35555)", "sequence (P35555 45-1527)": "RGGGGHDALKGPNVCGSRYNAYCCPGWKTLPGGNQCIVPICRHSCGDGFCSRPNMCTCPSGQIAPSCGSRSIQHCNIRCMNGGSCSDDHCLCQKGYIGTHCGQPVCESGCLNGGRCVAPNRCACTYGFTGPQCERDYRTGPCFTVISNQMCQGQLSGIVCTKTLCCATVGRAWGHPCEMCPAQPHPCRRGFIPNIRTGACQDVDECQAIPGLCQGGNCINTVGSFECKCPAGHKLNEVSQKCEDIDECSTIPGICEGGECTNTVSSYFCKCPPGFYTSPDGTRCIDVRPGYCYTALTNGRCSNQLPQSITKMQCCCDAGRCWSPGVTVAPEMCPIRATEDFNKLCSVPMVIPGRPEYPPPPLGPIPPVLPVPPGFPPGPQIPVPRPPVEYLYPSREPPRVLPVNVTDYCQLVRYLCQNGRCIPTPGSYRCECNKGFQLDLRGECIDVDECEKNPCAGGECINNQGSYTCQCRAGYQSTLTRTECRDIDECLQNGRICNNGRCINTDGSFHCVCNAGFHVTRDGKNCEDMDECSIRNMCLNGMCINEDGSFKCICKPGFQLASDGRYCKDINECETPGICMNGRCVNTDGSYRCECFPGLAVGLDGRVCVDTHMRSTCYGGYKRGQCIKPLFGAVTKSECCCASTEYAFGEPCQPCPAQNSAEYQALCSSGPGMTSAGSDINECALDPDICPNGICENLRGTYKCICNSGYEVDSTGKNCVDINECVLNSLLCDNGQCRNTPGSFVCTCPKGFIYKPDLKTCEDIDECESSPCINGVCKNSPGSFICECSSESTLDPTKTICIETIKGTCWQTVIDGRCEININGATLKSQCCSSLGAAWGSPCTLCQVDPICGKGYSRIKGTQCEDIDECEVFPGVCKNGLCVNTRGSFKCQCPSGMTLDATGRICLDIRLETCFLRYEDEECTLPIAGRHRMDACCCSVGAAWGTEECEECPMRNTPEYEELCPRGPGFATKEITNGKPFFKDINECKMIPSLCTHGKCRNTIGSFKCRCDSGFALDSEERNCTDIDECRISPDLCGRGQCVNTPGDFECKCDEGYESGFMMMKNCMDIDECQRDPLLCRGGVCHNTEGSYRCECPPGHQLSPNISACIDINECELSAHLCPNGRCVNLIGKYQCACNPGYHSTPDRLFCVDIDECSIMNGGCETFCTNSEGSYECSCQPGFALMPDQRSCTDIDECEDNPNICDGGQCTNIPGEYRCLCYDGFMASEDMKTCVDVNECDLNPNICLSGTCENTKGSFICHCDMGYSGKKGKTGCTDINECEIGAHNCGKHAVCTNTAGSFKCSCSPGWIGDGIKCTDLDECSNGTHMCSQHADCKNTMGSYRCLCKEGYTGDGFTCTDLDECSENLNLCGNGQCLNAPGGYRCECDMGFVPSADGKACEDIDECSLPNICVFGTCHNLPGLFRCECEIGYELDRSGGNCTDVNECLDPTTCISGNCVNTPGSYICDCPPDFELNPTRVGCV", "conditions": "cited from earlier work"}}}
{"substance": "rF90, recombinant N-terminal half of wildtype fibrillin-1 (from UniProt P35555 25-2871) (domain or fragment)", "values": [{"measurement": "Kd", "setting": "[1]", "result": 0.45, "unit": "µM"}]}
{"substance": "C-terminal ADAMTSL-3 polypeptide (domain or fragment)", "values": [{"measurement": "Kd", "setting": "[2]", "result": 0.002, "unit": "µM"}]}
{"substance": "ADAMTSL-6 (from UniProt Q6ZMP0)", "values": [{"measurement": "Kd", "setting": "[3]", "result": 0.08, "unit": "µM"}]}
